US20260159601A1

Molecular target: human CD20 (human) (UniProt P11836)
Experiment: flow cytometry on a human B-cell lymphoma cell line, 30 min at 4 C, detection with FITC-labeled F(ab)'2 goat anti-human Fc-gamma-specific antibody, median fluorescence intensity

Chain of human CD20 (human) (P11836 whole entry): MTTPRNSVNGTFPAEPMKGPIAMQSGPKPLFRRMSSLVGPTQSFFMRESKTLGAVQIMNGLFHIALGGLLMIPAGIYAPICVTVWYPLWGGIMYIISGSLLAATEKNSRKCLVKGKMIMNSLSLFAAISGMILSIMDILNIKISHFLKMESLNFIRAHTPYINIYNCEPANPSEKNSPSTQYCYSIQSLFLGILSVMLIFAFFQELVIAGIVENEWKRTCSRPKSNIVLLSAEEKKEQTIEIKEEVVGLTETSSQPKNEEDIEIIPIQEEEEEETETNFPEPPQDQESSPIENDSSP

EC50 (read off the curve): 5 nM
Substance: rituximab (antibody)
